These results are taken from article doi:10.1101/2023.07.27.550818 (bioRxiv, 2023).

This data set deals with the molecule itself. The data set is described as follows: crystal structure.

B1: PcaR (natural protein, P. putida, UniProt Q52154 1-291, looked up)
chain: MSDETLVNDPVNPEPARPASAAMAPPIVASPAKRIQAFTGDPDFMTSLARGLAVIQAFQERKRHLTIAQISHRTEIPRAAVRRCLHTLIKLGYATSDGRTYSLLPKVLTLGHAYLSSTPLAISAQPYLDRISDQLHEAANMATLEGDDILYIARSATVERLISVDLSVGGRLPAYCTSMGRILLAAMDDTSLREYLGRADLKARTSRTLHDPESLFACIQQVRAQGWCVVDQELEQGLRSIAVPIYDASGQVLAALNVSTHVGRVTRSELEQRFLPILLAASRDLCHQLFG
In the case of B1, the binding result is given as “binds”.
